In paper PMC12284271, “Coupling chromosome organization to genome segregation in Archaea”:

Tests used:
[1] = system: T1, SegB (SegBSs) (Saccharolobus (Sulfolobus) solfataricus P2), ORF:2e81311c; experiment: AFM; conditions: EMSA and footprint: 10 mM Tris-HCl pH 7.5, 50 mM KCl, 1 mM DTT, 5 mM MgCl2, 2.5% glycerol, 0.05% NP-40, 1 ug poly(dI-dC), 37 C, 20 min, DNA 1-5 nM
T1 sequence: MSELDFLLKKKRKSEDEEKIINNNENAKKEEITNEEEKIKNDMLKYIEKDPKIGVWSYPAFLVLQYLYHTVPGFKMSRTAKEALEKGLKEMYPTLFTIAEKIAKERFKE

[2] = system: T1, SegB (SegBSs) (Saccharolobus (Sulfolobus) solfataricus P2), ORF:2e81311c; experiment: EMSA; conditions: EMSA and footprint: 10 mM Tris-HCl pH 7.5, 50 mM KCl, 1 mM DTT, 5 mM MgCl2, 2.5% glycerol, 0.05% NP-40, 1 ug poly(dI-dC), 37 C, 20 min, DNA 1-5 nM
[3] = system: T1, SegB (SegBSs) (Saccharolobus (Sulfolobus) solfataricus P2), ORF:2e81311c; experiment: DNase I footprinting; conditions: EMSA and footprint: 10 mM Tris-HCl pH 7.5, 50 mM KCl, 1 mM DTT, 5 mM MgCl2, 2.5% glycerol, 0.05% NP-40, 1 ug poly(dI-dC), 37 C, 20 min, DNA 1-5 nM
[4] = molecular target: SegB (Saccharolobus solfataricus) (S. solfataricus); experiment: MST; SegB labelled with NT-647 at 304 nM final; unlabelled SegA serially diluted 1:1 over fifteen tubes; 10 mM Tris-HCl pH 7.4, 100 mM NaCl, 0.05% Tween 20; 20% LED power, 40% MST power
SegB (SegBSa) = molecular target: T2, SegB (SegBSa) (Sulfolobus acidocaldarius, UniProt Q4JC57 1-151); experiment: EMSA; EMSA and footprint: 10 mM Tris-HCl pH 7.5, 50 mM KCl, 1 mM DTT, 5 mM MgCl2, 2.5% glycerol, 0.05% NP-40, 1 ug poly(dI-dC), 37 C, 20 min; DNA 1-5 nM, SegB 0-1000; conditions: protein: recombinant; (pET22b NdeI/XhoI); chain copies: 2; label: 5' biotin on strand 1; blunt
T2 sequence: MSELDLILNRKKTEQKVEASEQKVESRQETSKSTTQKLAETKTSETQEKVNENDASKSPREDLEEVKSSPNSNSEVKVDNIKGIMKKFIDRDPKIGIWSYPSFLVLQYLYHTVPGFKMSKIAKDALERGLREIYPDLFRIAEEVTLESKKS

Molecule	binding [2]	binding [3]	further results
AGTAAGATAAATTTACTGAAGTCGTTGTTTTGCCTACTCCTCCTTTCTGATTTATTACTGTGACTATCATGTCTAGACTCTTCTATCTATAACGTTTAATAAGGAATTCTACATGATAATACTGACGAGTCCACCATATTATAATGATAATATTTATATGCTAGATTTTTAAAAAGTATAAGTATGTTTGAGAAGCTCTATAGTGCAATAATTTATTCTGATGAATTTAAAAAAATACTATTGGGAAGAGGTGTAGATGACTTAGAGATAGCTTCAGCCTACATAGCGT (double strand) [289 bp segAB upstream fragment (sites 1, 2, 3)]			binding [1]: binds
CTCAGCTGTCGGTAATACGATTTAGAAAGGATGAAATCGCTTATTCAATTTACTCTAATAAGCGACTAGAGTCTATAAGAAACACTCTAGAGTATTCTACCATAGAGGGAGAAGGCTTATTCAATGGATGCATTCTATGCGGTAAATGTGTTAGTGTTTGCCCTTACGGTAAACAAACTAATGACGTATTCCATACTCCT (double strand) [peak B-3 fragment]	binds	binds	
GAATGTCACAAGGTTCTTTTCCTATATACTTAAAACAAGAGAAAAGTAGAGAAATATTCTATTATACTCTCTTTTTCCTAAATTTTAATCTTAAACTTAAGGGAAGTAGAGTCTAGACTCACGTTAGGGTATGAAATTATCTCATCCTAATTTTTATTTGGCATAACGCTAATATGAAAAACATAAATAGTTAGAGTGTT (double strand) [peak D fragment]	binds	binds	
GCATCTATGGCATCTGAATTGGGTATATAACCATATTCTACTTCTATTCCCATATCTTCATCACTAACGTAGAGATCAAGTAGTTTTCCTTTCTTCTCATACTCCACGAATACTCTATAGCCTAGACTCTTGAAGTAAGCAGATAATATTAATTGTAGACTGGAGTGGTTAATATTTGTGAATCCTAATTCATAAAAATC (double strand) [peak B-5 fragment]	binds	binds	
GCTCGTAATTGAGGCCAAAATTCACAAAAATGATTACCTACAGACTCTAGAGTACTCTAAATATTTCAAGTACGGTATGGCAGTATTTCCATTTACTGGAGAGTGTAGAGTACCTAAAGGTTGGATTTGTATATTTAACACCACAAAGGATCAGTCTAGATTCTACTCTCTTCTTGAAGATTTATTATCTAGAGTTAAGT (double strand) [peak B-6 fragment]	binds	binds	
SegA (Saccharolobus solfataricus) (natural protein)			Kd [4]: 46 nM
saci0204(-47) 50 bp oligonucleotide (dsDNA) DNA 1: TTATGAGAAGAATCTGAAATAAAGGGTATAGAGTTAAGAGTCTATATATG DNA 2: CATATATAGACTCTTAACTCTATACCCTTTATTTCAGATTCTTCTCATAA			binding result (SegB (SegBSa)): binds
